In PMC6713926 (2019):

Target: Biotinylated C3b (human, UniProt P01024 23-667; P01024 749-1663, biotin (Maleimide-PEG2-Biotin))
Assay: BLI

Sequence of Biotinylated C3b (P01024 23-667, chain 1 of 2): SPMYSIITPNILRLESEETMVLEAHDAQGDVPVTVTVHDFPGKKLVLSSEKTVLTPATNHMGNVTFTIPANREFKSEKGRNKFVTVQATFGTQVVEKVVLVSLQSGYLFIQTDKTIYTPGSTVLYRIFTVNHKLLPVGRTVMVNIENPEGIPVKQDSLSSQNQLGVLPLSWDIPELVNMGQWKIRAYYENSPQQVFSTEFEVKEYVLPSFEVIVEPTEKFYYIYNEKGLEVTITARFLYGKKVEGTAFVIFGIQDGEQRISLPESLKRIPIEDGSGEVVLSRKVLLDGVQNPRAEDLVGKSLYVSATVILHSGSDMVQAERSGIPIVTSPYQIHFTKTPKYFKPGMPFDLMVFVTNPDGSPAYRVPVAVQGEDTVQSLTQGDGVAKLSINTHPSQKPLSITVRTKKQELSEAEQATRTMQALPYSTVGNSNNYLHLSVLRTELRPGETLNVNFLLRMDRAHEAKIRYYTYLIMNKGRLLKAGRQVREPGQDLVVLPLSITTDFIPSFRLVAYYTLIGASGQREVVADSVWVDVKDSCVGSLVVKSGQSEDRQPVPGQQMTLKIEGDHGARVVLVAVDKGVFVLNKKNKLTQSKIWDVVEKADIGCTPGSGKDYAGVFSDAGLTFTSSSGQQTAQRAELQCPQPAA
Sequence of Biotinylated C3b (P01024 749-1663, chain 2 of 2): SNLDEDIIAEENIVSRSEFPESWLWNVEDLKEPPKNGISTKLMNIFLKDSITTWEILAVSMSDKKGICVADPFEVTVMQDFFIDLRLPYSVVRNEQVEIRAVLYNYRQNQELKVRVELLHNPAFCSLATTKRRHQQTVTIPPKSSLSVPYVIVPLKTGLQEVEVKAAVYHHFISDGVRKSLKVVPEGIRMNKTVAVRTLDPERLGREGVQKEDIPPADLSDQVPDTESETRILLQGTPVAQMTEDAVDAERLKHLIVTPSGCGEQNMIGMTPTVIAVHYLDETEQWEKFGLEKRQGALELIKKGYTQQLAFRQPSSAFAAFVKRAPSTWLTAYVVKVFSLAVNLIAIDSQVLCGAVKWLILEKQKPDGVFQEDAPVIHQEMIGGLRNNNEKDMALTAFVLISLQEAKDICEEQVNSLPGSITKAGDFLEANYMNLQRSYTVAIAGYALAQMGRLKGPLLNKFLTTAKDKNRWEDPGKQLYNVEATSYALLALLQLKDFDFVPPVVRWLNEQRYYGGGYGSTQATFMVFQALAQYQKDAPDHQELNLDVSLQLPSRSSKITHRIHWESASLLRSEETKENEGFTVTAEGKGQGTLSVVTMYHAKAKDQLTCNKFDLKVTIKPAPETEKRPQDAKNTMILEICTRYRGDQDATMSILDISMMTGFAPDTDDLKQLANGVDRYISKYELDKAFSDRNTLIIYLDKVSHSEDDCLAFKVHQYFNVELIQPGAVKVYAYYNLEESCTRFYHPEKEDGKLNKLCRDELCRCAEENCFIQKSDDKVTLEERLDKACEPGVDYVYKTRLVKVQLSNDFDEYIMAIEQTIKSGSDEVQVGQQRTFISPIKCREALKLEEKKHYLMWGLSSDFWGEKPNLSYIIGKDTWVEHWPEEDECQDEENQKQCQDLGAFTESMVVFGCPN

Row | Binder | Kd [µM]
1 | FPht Q343R (complex) chain 1: DPVLCFTQYEESSGKCKGLLGGGVSVEDCCLNTAFAYQKRSGGLCQPCRSPRWSLWSTWAPCSVTCSEGSQLRYRRCVGWNGQCSGKVAPGTLEWQLQACEDQQCCPEMGGWSGWGPWEPCSVTCSKGTRTRRRACNHPAPKCGGHCPGQAQESEACDTQQVCPTHGAWATWGPWTPCSASCHGGPHEPKETRSRKCSAPEPSQKPPGKPCPGLAYEQRRCTGLPPCP chain 2: VAGGWGPWGPVSPCPVTCGLGQTMEQRTCNHPVPQHGGPFCAGDATRTHICNTAVPCPVDGEWDSWGEWSPCIRRNMKSISCQEIPGRQSRGRTCRGRKFDGHRCAGQQQDIRHCYSIQHCPLKGSWSEWSTWGLCMPPCGPNPTRARQRLCTPLLPKYPPTVSMVEGQGEKNVTFWGRPLPRCEELQGQKLVVEEKRPCLHVPACKDPEEEEL | 4
2 | FPht Y414D (complex) chain 1: DPVLCFTQYEESSGKCKGLLGGGVSVEDCCLNTAFAYQKRSGGLCQPCRSPRWSLWSTWAPCSVTCSEGSQLRYRRCVGWNGQCSGKVAPGTLEWQLQACEDQQCCPEMGGWSGWGPWEPCSVTCSKGTRTRRRACNHPAPKCGGHCPGQAQESEACDTQQVCPTHGAWATWGPWTPCSASCHGGPHEPKETRSRKCSAPEPSQKPPGKPCPGLAYEQRRCTGLPPCP chain 2: VAGGWGPWGPVSPCPVTCGLGQTMEQRTCNHPVPQHGGPFCAGDATRTHICNTAVPCPVDGEWDSWGEWSPCIRRNMKSISCQEIPGQQSRGRTCRGRKFDGHRCAGQQQDIRHCYSIQHCPLKGSWSEWSTWGLCMPPCGPNPTRARQRLCTPLLPKDPPTVSMVEGQGEKNVTFWGRPLPRCEELQGQKLVVEEKRPCLHVPACKDPEEEEL | 5
